Paper PMC7383614, “Computational Design of Enantiocomplementary Epoxide Hydrolases for Asymmetric Synthesis of Aliphatic and Aromatic Diols” (Chembiochem, 2020)

Legend:
Assay in all cases: initial velocities of diol formation, Michaelis-Menten fit
Assay type in all cases: biochemical, Rhodococcus erythropolis
Details in all cases: buffer and temperature of kinetics not given (activity assays: 50 mM HEPES pH 8, 30 °C)
[1] = substrate: C1CC2OC2C1
Source text: (§1) initial velocities of diol formation, Michaelis-Menten fit on LEH-P (thermostable limonene epoxide hydrolase)

[2] = substrate: C[C@@H]1O[C@@H]1C
Source text: as §1

[3] = substrate: c1ccc([C@H]2O[C@H]2c2ccccc2)cc1
Source text: as §1

[4] = variant 43A, single measurement, margin from average coefficient of variation

B1: LEH-P (thermostable limonene epoxide hydrolase) (Rhodococcus erythropolis; A19K/E45K/N92K/S15P/T2A/T76K/T85V/Y96F) (protein)
chain: MASKIEQPRWASKDPAAGKASTPDEKIVLEFMDALTSNDAAKLIKYFAEDTMYQNMPLPPAYGRDAVEQTLAGLFKVMSIDAVEVFHIGSSKGLVFTERVDVLRALPTGKSYNLSILGVFQLTEGKITGWRDYFDLREFEEAVDLPLRG
notes: N-terminal hexa-His tag; expressed in E. coli; dimeric
Km [1]: 4200 ± 200 µM | kcat [1]: 0.035 ± 0.004 s⁻¹ | kcat/Km [1]: 7.9 M⁻¹ s⁻¹ | Km [2]: 18000 ± 1000 µM | kcat [2]: 0.056 ± 0.01 s⁻¹ | kcat/Km [2]: 3.1 M⁻¹ s⁻¹ | Km [3]: 370 ± 20 µM | kcat [3]: 0.147 ± 0.012 s⁻¹ | kcat/Km [3]: 406 M⁻¹ s⁻¹

B2: LEH-P (thermostable limonene epoxide hydrolase) (Rhodococcus erythropolis; A19K/E45K/F139L/I116V/I80F/L103I/M32A/M78I/N92K/S15P/T2A/T76K/T85V/Y96F) (protein)
chain: MASKIEQPRWASKDPAAGKASTPDEKIVLEFADALTSNDAAKLIKYFAEDTMYQNMPLPPAYGRDAVEQTLAGLFKVISFDAVEVFHIGSSKGLVFTERVDVIRALPTGKSYNLSVLGVFQLTEGKITGWRDYFDLRELEEAVDLPLRG
notes: as for B1
Km ([1]; variant 24A): 3000 ± 200 µM | kcat ([1]; variant 24A): 0.005 ± 0.001 s⁻¹ | kcat/Km ([1]; variant 24A): 1.9 M⁻¹ s⁻¹

B3: LEH-P (thermostable limonene epoxide hydrolase) (Rhodococcus erythropolis; A19K/E45K/F139L/I80W/L103V/L35G/M32L/N92K/S15P/T2A/T76K/T85V/Y96F) (protein)
chain: MASKIEQPRWASKDPAAGKASTPDEKIVLEFLDAGTSNDAAKLIKYFAEDTMYQNMPLPPAYGRDAVEQTLAGLFKVMSWDAVEVFHIGSSKGLVFTERVDVVRALPTGKSYNLSILGVFQLTEGKITGWRDYFDLRELEEAVDLPLRG
notes: as for B1
Km ([3]; variant 60A): 60 ± 10 µM | kcat ([3]; variant 60A): 0.052 ± 0.006 s⁻¹ | kcat/Km ([3]; variant 60A): 890 M⁻¹ s⁻¹

B4: LEH-P (thermostable limonene epoxide hydrolase) (Rhodococcus erythropolis; A19K/E45K/I116F/L103I/L114M/L35M/M32L/M78I/N92K/S15P/T2A/T76K/T85V/Y96F) (protein)
chain: MASKIEQPRWASKDPAAGKASTPDEKIVLEFLDAMTSNDAAKLIKYFAEDTMYQNMPLPPAYGRDAVEQTLAGLFKVISIDAVEVFHIGSSKGLVFTERVDVIRALPTGKSYNMSFLGVFQLTEGKITGWRDYFDLREFEEAVDLPLRG
notes: as for B1
Km ([3]; variant 52A): 160 ± 30 µM | kcat ([3]; variant 52A): 0.003 ± 0.001 s⁻¹ | kcat/Km ([3]; variant 52A): 19 M⁻¹ s⁻¹

B5: LEH-P (thermostable limonene epoxide hydrolase) (Rhodococcus erythropolis; A19K/E45K/F134Y/F139W/L103V/L74I/N92K/S15P/T2A/T76K/T85V/Y96F) (protein)
chain: MASKIEQPRWASKDPAAGKASTPDEKIVLEFMDALTSNDAAKLIKYFAEDTMYQNMPLPPAYGRDAVEQTLAGIFKVMSIDAVEVFHIGSSKGLVFTERVDVVRALPTGKSYNLSILGVFQLTEGKITGWRDYYDLREWEEAVDLPLRG
notes: as for B1
Km [1, 4]: 35000 ± 4000 µM | kcat [1, 4]: 0.017 ± 0.005 s⁻¹ | kcat/Km [1, 4]: 0.48 M⁻¹ s⁻¹

B6: LEH-P (thermostable limonene epoxide hydrolase) (Rhodococcus erythropolis; A19K/E45K/F139L/I116F/L103I/L114M/L35M/M32L/N92K/S15P/T2A/T76K/T85V/Y96F) (protein)
chain: MASKIEQPRWASKDPAAGKASTPDEKIVLEFLDAMTSNDAAKLIKYFAEDTMYQNMPLPPAYGRDAVEQTLAGLFKVMSIDAVEVFHIGSSKGLVFTERVDVIRALPTGKSYNMSFLGVFQLTEGKITGWRDYFDLRELEEAVDLPLRG
notes: as for B1
Km ([3]; variant 41B): 190 ± 20 µM | kcat ([3]; variant 41B): 0.002 ± 0.001 s⁻¹ | kcat/Km ([3]; variant 41B): 10.5 M⁻¹ s⁻¹
